According to US20240293499A1 (SUNNYBROOK RESEARCH INSTITUTE, published 2024):

Tests used:
[1] = biological target: T1, hVISTA-Fc (produced in house) (human, UniProt Q9H7M9 33-194, limits assumed); assay: SPR (BIAcore T200), single-cycle kinetics, Nb captured on anti-His chip, hVISTA-Fc injected at 1.9, 3.8, 7.5, 15, 30 nM, 1:1 fit
T1 construct: Analyte in the SPR of the nanobodies; not shown: Fc
T1 sequence (looked up): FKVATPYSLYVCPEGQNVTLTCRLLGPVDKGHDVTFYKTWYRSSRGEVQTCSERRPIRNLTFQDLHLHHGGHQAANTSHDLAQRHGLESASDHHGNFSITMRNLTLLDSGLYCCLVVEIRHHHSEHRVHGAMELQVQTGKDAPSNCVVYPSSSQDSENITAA
Protocol: (§1) Binding kinetics of mAbs and Nbs to hVISTA and mVISTA were obtained by surface plasmon resonance (SPR) using a BIAcore T200 (Cytiva) and HBS running buffer (20 mM of HEPES pH 7.4, 150 mM NaCl, 0.005% Tween-20, 3.4 mM EDTA). Briefly, anti-histidine antibodies were immobilized on a CM5 chip (29149604; Cytiva) using the His capture kit (28995056; Cytiva) following manufacture's protocol. For mAbs, VISTA was captured by flowing […] of hVISTA-COMP-his or mVISTA-COMP-his at a flow rate of 30 μL/min. Sensorgrams were collected using single-cycle kinetics covering five mAb concentrations (1:2 serial dilutions). For Nbs, solutions of each nanobody ([…]) were flown over an anti-histidine-coated chip. Five concentrations (1:2 serial dilutions) of hVISTA-Fc (produced in house) were then injected at a flow rate of 30 μL/min. KD, Kₒₙ, and Koff were calculated by analyzing the sensorgrams with a 1:1 Langmuir binding model²³ after subtracting reference sensorgrams.

[2] = biological target: T1, hVISTA-Fc (produced in house); assay: SPR (BIAcore T200), single-cycle kinetics; Nb captured on anti-His chip, hVISTA-Fc as analyte; 1:1 Langmuir fit
Protocol: as §1

[3] = biological target: T2, hVISTA-COMP-his, pentameric form comprising the extracellular IgV domain of human VISTA (human, UniProt Q9H7M9 33-194); assay: SPR (BIAcore T200), single-cycle kinetics; hVISTA-COMP-his captured on anti-His chip, mAb as analyte; 1:1 Langmuir fit
T2 construct: domain: extracellular IgV domain; not shown: his tag
Protocol: as §1

[4] = biological target: T2, hVISTA-COMP-his, pentameric form …; assay: SPR (BIAcore T200), single-cycle kinetics, hVISTA-COMP-his captured on anti-His chip, mAb injected at 1, 2, 4, 8, 16 nM, 1:1 fit
Protocol: as §1

[5] = biological target: T3, human VISTA on primary human immune cells (CD14+CD16- classical monocytes of PBMCs) (human, UniProt Q9H7M9 33-311); assay: flow cytometry on human PBMC, gate CD14+CD16- monocytes, ΔMFI against isotype control, 5 donors
T3 construct: whole, on cells; Native protein on donor cells; also called hVISTA
T3 sequence (looked up): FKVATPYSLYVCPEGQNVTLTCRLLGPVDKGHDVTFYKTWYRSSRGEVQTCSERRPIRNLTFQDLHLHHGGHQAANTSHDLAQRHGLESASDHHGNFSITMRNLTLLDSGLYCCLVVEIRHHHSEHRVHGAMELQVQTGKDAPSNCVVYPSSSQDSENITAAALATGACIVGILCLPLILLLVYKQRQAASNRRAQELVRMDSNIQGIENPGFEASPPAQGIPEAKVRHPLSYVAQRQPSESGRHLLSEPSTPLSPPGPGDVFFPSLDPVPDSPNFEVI
Protocol: (§2) Binding of mAbs and Nbs to human and murine immune cells were tested using human PBMCs and mouse splenocytes. For binding on human cells, whole human blood was obtained from donors in accordance with guidelines set forth by the Sunnybrook Research Ethics board (REB approval number 443-2017). Human peripheral blood mononuclear cells (PMBCs) were isolated from whole blood using Ficoll Paque PLUS (1.077 g/ml) (17144003; Cytiva). PBMCs had their Fc receptors blocked with Human TruStain FcX (422301; BioLegend) then incubated with 2.5 μg of mAb, mouse IgG1 (401408; BioLegend), or rat IgG2a (400565; BioLegend) or 15 μg Nb for 1 hour at 4° C. After washing with PBS, the PBMCs were incubated with secondary antibodies (1 μL; FITC anti-mouse IgG1, FITC anti-HA, or FITC anti-rat IgG2a; 406605, 901507, or MRG2a-83; BioLegend) or control FITC anti-VISTA antibodies (clone B7H5DS8; 11-1088-42; eBioscience) for 40 minutes at 4° C. […] Finally, the PBMCs were washed and resuspended in 3 μM DAPI (D1306; Thermo Fisher Scientific) and cytometric profiles recorded using a BD LSR II flow cytometer (BD) maintained by The Centre for Flow Cytometry & Scanning Microscopy (CCSM) at Sunnybrook Research Institute (SRI; Sunnybrook Health Sciences Centre, Toronto, ON, Canada). […]

[6] = biological target: T4, mVISTA-COMP-his, pentameric form comprising the extracellular IgV domain of murine VISTA (mouse, UniProt Q9D659 33-191); assay: SPR (BIAcore T200), single-cycle kinetics, mVISTA-COMP-his captured on anti-His chip, mAb injected at 20, 40, 80, 160, 320 nM, 1:1 fit
T4 construct: domain: extracellular IgV domain; Captured on an anti-histidine chip for SPR of the mAbs; also called recombinant mouse VISTA; not shown: his tag
T4 sequence (Q9D659 whole entry, looked up): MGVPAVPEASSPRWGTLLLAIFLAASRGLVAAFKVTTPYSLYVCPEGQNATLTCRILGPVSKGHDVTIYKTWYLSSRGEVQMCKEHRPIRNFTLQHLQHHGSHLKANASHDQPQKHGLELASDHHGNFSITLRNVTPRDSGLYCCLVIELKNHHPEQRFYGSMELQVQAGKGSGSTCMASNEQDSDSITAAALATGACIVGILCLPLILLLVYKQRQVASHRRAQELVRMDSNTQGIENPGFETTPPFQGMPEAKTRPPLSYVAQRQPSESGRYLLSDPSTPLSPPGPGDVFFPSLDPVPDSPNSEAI
Protocol: as §1

[7] = biological target: T2, hVISTA-COMP-his, pentameric form …; assay: SPR (BIAcore T200), single-cycle kinetics, hVISTA-COMP-his captured on anti-His chip, mAb injected at 20, 40, 80, 160, 320 nM, 1:1 fit
Protocol: as §1

[8] = biological target: T4, mVISTA-COMP-his, pentameric form …; assay: SPR (BIAcore T200), single-cycle kinetics; mVISTA-COMP-his captured on anti-His chip, mAb as analyte; 1:1 Langmuir fit
Protocol: as §1

[9] = biological target: T3, human VISTA on primary human immune …; assay: flow cytometry on human PBMC, gate CD14+CD16- monocytes, ΔMFI against isotype control, 5 donors; representative histogram against mIgG
Protocol: as §2

[10] = biological target: T2, hVISTA-COMP-his, pentameric form …; assay: SPR (BIAcore T200), single-cycle kinetics, hVISTA-COMP-his captured on anti-His chip, mAb injected at 2, 4, 8, 16, 32 nM, 1:1 fit
Protocol: as §1

[11] = biological target: T2, hVISTA-COMP-his, pentameric form …; assay: SPR (BIAcore T200), single-cycle kinetics, hVISTA-COMP-his captured on anti-His chip, mAb injected at 0.5, 1, 2, 4, 8 nM, 1:1 fit
Protocol: as §1

B1: anti-hVISTA nanobody hVISTANb1 (VHH)
VHH: QVQLQESGGGLVQPGGSLRLSCAASGSVGTIFSMGWFRQAPGVQREMVATITNSGETNYAAFVKGRFTISRDNAENTVYLQMNSLKPEDTAAYYCNAFDYVGGRTYELPYWGQGTQVTVSS
notes: Llama nanobody made in E. coli WK6, purified by IMAC, detected with anti-HA
- Kd [1]: 10.8 nM
- koff [1]: 0.00109 s⁻¹
- kon [1]: 102000 M⁻¹ s⁻¹
- Kd [2]: 11 nM

B2: murine anti-hVISTA mAb 7G5 (antibody, V domains shown)
VH: QIQLVQSGPELKKPGETVKISCKASGYTFTNYGMNWVKQAPEKGLKWMGWINTYTGEPTYADDFKGRFAFSLETSASTAYLQINNLKNEDTATYFCARRSNPWPNDYWGQGTSLTVSS
VL: DIQMTQSPSSFSASLGERVSLTCRASQEISGYLSWLQQKPDGTIKRLIYAASTLDSGVPKRFSGSRSGSDYSLTISSLESEDFADYYCLQYASYPWTFGGGTKLEIK
notes: Variable regions only, although headed 'Heavy Chain' and 'Light Chain'; Mouse IgG1 from hybridoma
- Kd [3]: 0.14 nM
- Kd [4]: 0.136 nM
- binding result [5]: binds

B3: rat anti-hmVISTA mAb 7C7 (antibody, V domains shown)
VH: EVQLVESGGGLVQPGRSLKLSCVASGFTFNKYWMSWTRQAPGKGLEWVASITNSGGNTYYPDSVKGRFTISRDNAQNTLYLQMNSLRSEDTATYYCTLGVDYWGQGAMVTVSS
VL: DVVMTQTPPSLSVTIGQSVSISCKSSQSLVYSDGKTYLHWLLQSSGRSPKRLIYQVSNLASGVPDRFSGTGSQKDFTLKISRVEAKDLGVYYCAQTTHFPYTFGAGTKLEMK
notes: Variable regions only; Rat IgG2a from hybridoma
- Kd [6]: 50.5 nM
- koff [6]: 0.002 s⁻¹
- kon [6]: 39600 M⁻¹ s⁻¹
- Kd [7]: 49.4 nM
- koff [7]: 2.2 s⁻¹
- kon [7]: 4.45e+07 M⁻¹ s⁻¹
- Kd [3]: 49 nM
- Kd [8]: 51 nM

B4: murine anti-hVISTA mAb 8G10 (antibody, V domains shown)
VH: QVQLQQSGAELVRPGASVTLSCKASGYTFTDYEMHWVKQTPVHGLEWIGAIDPETGGTAYNQKFKGKATLTADKSSSTAYMELRSLTSEDSAVYYCTRWSLRPYAMDYWGQGTSVTVSS
VL: DVVMTHTPLSLPVSLGDQASISCRSSQSLVHNNGNTYLHWYLQKPGQSPKLLIYKVSNRFSGVPDRFSGSGSGTDFTLKISRVEAEDLGLYFCSQSTHVPWTFGGGTKLEIK
notes: as for B2
- binding result [9]: binds
- Kd [10]: 0.98 nM
- koff [10]: 0.000111 s⁻¹
- kon [10]: 113000 M⁻¹ s⁻¹
- Kd [3]: 0.98 nM

B5: murine anti-hVISTA mAb 7E12 (antibody, V domains shown)
VH: DVHLQESGPGLVKPSQSLSLTCSVTGYSITSGYYWNWIRQFPGNKLEWMGYISYDGNNNYNPSLKNRISITRDTSKNQFFLKLNSVTTEDTATYYCARGDYGSEAMDYWGQGTSVTVSS
VL: DIRVTQSPASLAVSLGQRATISCRASKSVSTSGYSYMNWYQQKPGQPPQLLIYLASNLESGVPARFSGSGSGTDFTLNIHPVEEEDAAIYYCQHSRELPWTFGGGTKLEIK
notes: Mouse IgG1 purified from hybridoma
- Kd [11]: 0.442 nM
- koff [11]: 0.000123 s⁻¹
- kon [11]: 279000 M⁻¹ s⁻¹
- Kd [3]: 0.44 nM
